From PMC10572819

How the values were obtained:
[1] = Western blot, HEK-293 with BAP31 siRNA; conditions: glycan lost; control: WT-EpCAM
[2] = Western blot, HEK-293 co-transfected with BAP31; conditions: glycan lost; control: WT-EpCAM

B1: epithelial cell-adhesion molecule (EpCAM): N76/111/198A (protein)
parent chain: MAPPQVLAFGLLLAAATATFAAAQEECVCENYKLAVNCFVNNNRQCQCTSVGAQNTVICSKLAAKCLVMKAEMNGSKLGRRAKPEGALQNNDGLYDPDCDESGLFKAKQCNGTSMCWCVNTAGVRRTDKDTEITCSERVRTYWIIIELKHKAREKPYDSKSLRTALQKEITTRYQLDPKFITSILYENNVITIDLVQNSSQKTQNDVDIADVAYYFEKDVKGESLFHSKKMDLTVNGEQLDLDPGQTLIYYVDEKAPEFSMQGLKAGVIAVIVVVVIAVVAGIVVLVISRKKRMAKYEKAEIKEMGEMHRELNA
Q: What does the source list for B1?
A: other: fall in protein level on BAP31 knockdown [1]: abolishes; other: rise in protein level on BAP31 overexpression [2]: abolishes
